Assays:
[1] = target: T1, Recombinant human CD47 protein (Homo sapiens, UniProt Q08722); assay: ELISA detection of CD47 antibody; type: binding
T1 construct: purchased DIMA BIOTECH PME-100008
Protocol: Recombinant human CD47 protein (DIMA BIOTECH, Cat# PME-100008) was diluted with PBS to a concentration of 1 µg/ml, coated onto ELISA plates with 100 µl/well, and incubated overnight at 4 °C. On the following day, the plates were washed with 300 µl/well of PBST for three times. 300 µl/well of blocking solution (PBST containing 1% BSA (W/W)) was added, and the plates were blocked at 37 °C for 2 hours. After the blocking solution was discarded, the plates were washed with PBST for three times. 100 µl/well of antibody (5-fold gradient dilution, 8 dilution points) was added and incubated at 37 °C for 1 hour. The antibody solution was then discarded, and the plates were washed with PBST for three times. Goat anti-Human IgG Fc Highly Cross-Adsorbed Secondary Antibody, HRP (Invitrogen, Cat# A18829, 1:5000 dilution, 100 µl/well) was added and incubated at 37 °C for 0.5 hours, followed by three washes with PBST. 100 µl/well of TMB chromogenic substrate (solarbio, Cat# PR1200) was added and incubated at 37 °C for 5 minutes, after which 50 µl/well of ELISA stop solution (solarbio, Cat# C1058) was added. The OD450 was read using a microplate reader (ELx800 Absorbance Microplate Reader, BioTek). Data analysis and curve fitting were performed using software (GraphPad Prism 8).

[2] = test system: Human small cell lung cancer SHP-77 cells; assay: In vivo efficacy, subcutaneous SHP-77 tumor model (Example 11); parameters: species or system CB17-SCID mice; settings: for T/C ratio / TGI inhibition rate: after 38 days of treatment
Protocol: Human small cell lung cancer SHP-77 cells were subcutaneously transplanted into CB17-SCID mice to establish an in vivo model. SHP-77 cells were cultured according to standard culture conditions and were collected during the exponential growth phase for counting. Each mouse was inoculated on the right flank with 2.5×10^6 human small cell lung cancer SHP-77 cells (suspended in 0.1 ml of basal medium). After inoculation, when the tumors grew to 60-103 mm^3 (5 days post-tumor implantation), the mice were randomly grouped based on body weight and tumor volume. The experimental groups were divided as follows:
Treatment was started on the day of grouping. Mice were weighed, and tumor volumes were measured twice a week. Tumor volume was calculated using the formula: tumor volume = 1/2 × length × width × width (mm^3). The tumor growth inhibition rate TGI (%) was calculated as [1 - (Tt - T0) / (Ct - C0)] × 100%. The tumor inhibition rate T/C (%) was calculated as (Tt/T0) / (Ct/C0) × 100%. T0 represents the tumor volume of the test antibody group at the time of grouping; Tt represents the tumor volume of the test antibody group at each measurement; C0 represents the average tumor volume of the PBS group at the time of grouping; Ct represents the average tumor volume of the PBS group at each measurement.

T1 sequence (Q08722 19-323): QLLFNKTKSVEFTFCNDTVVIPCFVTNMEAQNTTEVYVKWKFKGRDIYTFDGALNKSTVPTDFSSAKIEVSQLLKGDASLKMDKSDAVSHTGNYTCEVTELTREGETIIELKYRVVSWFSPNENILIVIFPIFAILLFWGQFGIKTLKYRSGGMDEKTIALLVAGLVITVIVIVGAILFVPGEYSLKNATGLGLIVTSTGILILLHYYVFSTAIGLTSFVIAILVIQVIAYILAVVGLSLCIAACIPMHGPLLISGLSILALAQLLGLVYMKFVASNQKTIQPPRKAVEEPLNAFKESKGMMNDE

B1: CD47 TMEAbody: CD47 TMEAbody conjugated with PEG of approximately 20K molecular weight (i.e., PEG20K) (conjugate)
VH: QQQLEESGGGLVKPEGSLTLTCTASGFSFSSGYDMCWVRQAPGRGLEWIACIYTRSSGGTCYASWAKGRFTISKTSSTVDLRMTSLTAADTATYFCAGGRSSYRLNLWGQGALVTVSS
VL: DVVMTQTPSPVEAAVGGTVTIKCQASQSISNELSWYQQKPGQPPKLLIYRASTLESGVSSRFKGSGSGTEFTLTISDLECADAATYYCQSTFYGDYGNAFGGGTEVVVK
Question: With B1 as the molecule, how does the “binding affinity weaker compared to 70H1” value [1] read?
Answer: approximately 7 fold

Question: And the “recovery of binding affinity” value ([1]; legumain (asparaginyl endopeptidase, AEP))?
Answer: recoverable by legumain

Question: What about the “Tumor Volume” value ([2]; 0.3 mg/kg, D0) of the same molecule?
Answer: 79.15 mm^3

Question: What about the “Tumor Volume” value ([2]; 0.3 mg/kg, D3) of the same molecule?
Answer: 63.51 mm^3

Question: And the “Tumor Volume” value ([2]; 0.3 mg/kg, D7)?
Answer: 44.29 mm^3

Question: And the “Tumor Volume” value ([2]; 0.3 mg/kg, D10)?
Answer: 42.63 mm^3

Question: And the “Tumor Volume” value ([2]; 0.3 mg/kg, D14)?
Answer: 42.49 mm^3

Question: What about the “Tumor Volume” value ([2]; 0.3 mg/kg, D17) of the same molecule?
Answer: 44.81 mm^3

Question: And the “Tumor Volume” value ([2]; 0.3 mg/kg, D21)?
Answer: 74.08 mm^3

Question: And the “Tumor Volume” value ([2]; 0.3 mg/kg, D24)?
Answer: 116.17 mm^3

Question: What about the “Tumor Volume” value ([2]; 0.3 mg/kg, D28) of the same molecule?
Answer: 142.04 mm^3

Question: And the “Tumor Volume” value ([2]; 0.3 mg/kg, D31)?
Answer: 194.29 mm^3

Question: What about the “Tumor Volume” value ([2]; 0.3 mg/kg, D35) of the same molecule?
Answer: 272.39 mm^3

Question: And the “Tumor Volume” value ([2]; 0.3 mg/kg, D38)?
Answer: 373.67 mm^3

Question: And the T/C ratio ([2]; 0.3 mg/kg)?
Answer: 29.52%

Question: What about the TGI inhibition rate ([2]; 0.3 mg/kg) of the same molecule?
Answer: 75.38%

Question: What about the “Tumor Volume” value ([2]; 1 mg/kg, D0) of the same molecule?
Answer: 79.75 mm^3

Question: And the “Tumor Volume” value ([2]; 1 mg/kg, D3)?
Answer: 69.70 mm^3

Question: What about the “Tumor Volume” value ([2]; 1 mg/kg, D7) of the same molecule?
Answer: 47.94 mm^3

Question: And the “Tumor Volume” value ([2]; 1 mg/kg, D10)?
Answer: 36.61 mm^3

Question: And the “Tumor Volume” value ([2]; 1 mg/kg, D14)?
Answer: 32.95 mm^3

Question: What about the “Tumor Volume” value ([2]; 1 mg/kg, D17) of the same molecule?
Answer: 20.93 mm^3

Question: And the “Tumor Volume” value ([2]; 1 mg/kg, D21)?
Answer: 19.98 mm^3

Question: And the “Tumor Volume” value ([2]; 1 mg/kg, D24)?
Answer: 27.75 mm^3

Question: And the “Tumor Volume” value ([2]; 1 mg/kg, D28)?
Answer: 17.69 mm^3

Question: What about the “Tumor Volume” value ([2]; 1 mg/kg, D31) of the same molecule?
Answer: 21.42 mm^3

Question: What about the “Tumor Volume” value ([2]; 1 mg/kg, D35) of the same molecule?
Answer: 15.37 mm^3

Question: And the “Tumor Volume” value ([2]; 1 mg/kg, D38)?
Answer: 14.44 mm^3

Question: And the T/C ratio ([2]; 1 mg/kg)?
Answer: 1.13%

Question: And the TGI inhibition rate ([2]; 1 mg/kg)?
Answer: 105.46%

Question: What about the “Tumor Volume” value ([2]; 3 mg/kg, D0) of the same molecule?
Answer: 79.00 mm^3

Question: What about the “Tumor Volume” value ([2]; 3 mg/kg, D3) of the same molecule?
Answer: 65.86 mm^3

Question: And the “Tumor Volume” value ([2]; 3 mg/kg, D7)?
Answer: 44.80 mm^3

Question: And the “Tumor Volume” value ([2]; 3 mg/kg, D10)?
Answer: 33.94 mm^3

Question: And the “Tumor Volume” value ([2]; 3 mg/kg, D14)?
Answer: 27.48 mm^3

Question: And the “Tumor Volume” value ([2]; 3 mg/kg, D17)?
Answer: 24.62 mm^3

Question: And the “Tumor Volume” value ([2]; 3 mg/kg, D21)?
Answer: 9.14 mm^3

Question: What about the “Tumor Volume” value ([2]; 3 mg/kg, D24) of the same molecule?
Answer: 13.52 mm^3

Question: And the “Tumor Volume” value ([2]; 3 mg/kg, D28)?
Answer: 10.79 mm^3

Question: What about the “Tumor Volume” value ([2]; 3 mg/kg, D31) of the same molecule?
Answer: 17.13 mm^3

Question: What about the “Tumor Volume” value ([2]; 3 mg/kg, D35) of the same molecule?
Answer: 14.44 mm^3

Question: What about the “Tumor Volume” value ([2]; 3 mg/kg, D38) of the same molecule?
Answer: 12.85 mm^3

Question: What about the T/C ratio ([2]; 3 mg/kg) of the same molecule?
Answer: 1.02%

Question: What about the TGI inhibition rate ([2]; 3 mg/kg) of the same molecule?
Answer: 105.53%

Question: And the tumor growth inhibition ([2]; 0.3-3 mg/kg)?
Answer: significant tumor growth inhibition

Question: And the “changes in body weight” value ([2]; during the treatment period)?
Answer: No significant changes in body weight

Source: patent EP4793287A1, “TUMOR MICROENVIRONMENT SPECIFICALLY ACTIVATED CD47 ANTIBODY” (Affinity (Shanghai) Biopharmaceutical Co., Ltd., priority 2023, dated 2025)
